According to doi:10.1101/2024.05.05.592584 (bioRxiv, 2024):

Columns and labels:
Test in all cases: BLI
Conditions in all cases: both partners purified
SARS-CoV-2 EG.5.1 NTD = target: T1, SARS-CoV-2 EG.5.1 NTD (SARS-CoV-2 Omicron EG.5.1, strain)
T1 chain: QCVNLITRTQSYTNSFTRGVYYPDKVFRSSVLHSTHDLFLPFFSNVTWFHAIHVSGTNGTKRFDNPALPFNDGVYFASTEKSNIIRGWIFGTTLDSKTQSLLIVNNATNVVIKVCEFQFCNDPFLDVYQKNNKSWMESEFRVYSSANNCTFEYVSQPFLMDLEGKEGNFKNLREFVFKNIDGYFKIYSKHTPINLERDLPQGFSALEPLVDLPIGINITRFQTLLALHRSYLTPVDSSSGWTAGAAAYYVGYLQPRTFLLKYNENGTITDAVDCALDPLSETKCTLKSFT

[1] = target: T2, SARS-CoV-2 P.1 (Gamma) NTD (SARS-CoV-2 P.1 (Gamma), strain)
T2 chain: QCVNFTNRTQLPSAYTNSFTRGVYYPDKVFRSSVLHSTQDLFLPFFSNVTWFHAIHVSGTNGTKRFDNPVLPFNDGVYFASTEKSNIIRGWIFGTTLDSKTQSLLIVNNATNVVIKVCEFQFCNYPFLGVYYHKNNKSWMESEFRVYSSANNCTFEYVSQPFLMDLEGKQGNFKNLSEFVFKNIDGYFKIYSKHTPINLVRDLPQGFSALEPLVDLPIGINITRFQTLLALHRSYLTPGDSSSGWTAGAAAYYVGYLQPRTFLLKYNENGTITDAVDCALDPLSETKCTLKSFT

SARS-CoV-2 XBB.1.5 NTD = target: T3, SARS-CoV-2 XBB.1.5 NTD (SARS-CoV-2 Omicron XBB.1.5, strain)
T3 chain: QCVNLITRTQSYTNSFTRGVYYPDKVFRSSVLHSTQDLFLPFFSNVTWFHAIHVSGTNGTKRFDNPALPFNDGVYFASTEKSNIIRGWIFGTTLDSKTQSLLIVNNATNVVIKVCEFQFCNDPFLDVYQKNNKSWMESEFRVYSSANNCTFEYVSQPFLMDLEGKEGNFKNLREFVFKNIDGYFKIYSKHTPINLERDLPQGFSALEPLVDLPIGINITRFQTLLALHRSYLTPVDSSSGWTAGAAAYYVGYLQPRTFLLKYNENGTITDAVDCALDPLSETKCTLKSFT

SARS-CoV-2 BA.2.75.2 NTD = target: T4, SARS-CoV-2 BA.2.75.2 NTD (SARS-CoV-2 Omicron BA.2.75.2, strain)
T4 chain: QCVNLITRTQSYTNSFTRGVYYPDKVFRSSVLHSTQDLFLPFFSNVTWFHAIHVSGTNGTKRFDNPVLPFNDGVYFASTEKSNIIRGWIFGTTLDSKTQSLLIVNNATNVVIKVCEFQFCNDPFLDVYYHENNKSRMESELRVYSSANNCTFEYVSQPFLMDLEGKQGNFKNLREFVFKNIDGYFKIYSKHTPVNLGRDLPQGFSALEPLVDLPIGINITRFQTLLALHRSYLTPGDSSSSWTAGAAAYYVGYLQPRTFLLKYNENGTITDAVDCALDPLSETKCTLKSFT

SARS-CoV-2 BA.4/BA.5 NTD = target: T5, SARS-CoV-2 BA.4/BA.5 NTD (SARS-CoV-2 Omicron BA.4/BA.5, strain)
T5 chain: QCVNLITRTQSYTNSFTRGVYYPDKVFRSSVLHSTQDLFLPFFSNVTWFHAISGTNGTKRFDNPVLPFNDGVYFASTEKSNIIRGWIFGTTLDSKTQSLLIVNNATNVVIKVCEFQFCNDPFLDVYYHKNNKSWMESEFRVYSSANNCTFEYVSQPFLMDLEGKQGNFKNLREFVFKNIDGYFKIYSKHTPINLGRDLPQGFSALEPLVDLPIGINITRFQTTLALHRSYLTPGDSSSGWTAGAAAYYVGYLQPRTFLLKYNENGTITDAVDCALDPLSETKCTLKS

SARS-CoV-2 XBB.1.16 NTD = target: T6, SARS-CoV-2 XBB.1.16 NTD (SARS-CoV-2 Omicron XBB.1.16, strain)
T6 chain: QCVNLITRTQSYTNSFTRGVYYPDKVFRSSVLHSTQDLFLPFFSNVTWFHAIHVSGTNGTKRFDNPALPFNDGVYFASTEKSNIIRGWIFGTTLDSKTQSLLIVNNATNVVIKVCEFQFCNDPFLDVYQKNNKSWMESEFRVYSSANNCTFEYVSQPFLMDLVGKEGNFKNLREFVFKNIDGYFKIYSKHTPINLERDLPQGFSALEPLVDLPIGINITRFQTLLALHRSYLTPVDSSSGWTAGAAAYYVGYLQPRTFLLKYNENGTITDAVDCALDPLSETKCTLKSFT

SARS-CoV-2 BA.2 NTD = target: T7, SARS-CoV-2 BA.2 NTD (SARS-CoV-2 Omicron BA.2, strain)
T7 chain: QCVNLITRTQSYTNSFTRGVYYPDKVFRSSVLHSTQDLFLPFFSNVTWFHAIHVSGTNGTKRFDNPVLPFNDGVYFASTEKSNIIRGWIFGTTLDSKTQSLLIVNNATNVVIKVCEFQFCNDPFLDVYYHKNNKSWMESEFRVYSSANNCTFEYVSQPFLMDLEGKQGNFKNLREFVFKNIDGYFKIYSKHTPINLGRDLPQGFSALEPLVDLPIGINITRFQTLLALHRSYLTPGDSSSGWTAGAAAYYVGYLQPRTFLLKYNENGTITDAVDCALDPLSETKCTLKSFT

SARS-CoV-2 BA.1 NTD = target: T8, SARS-CoV-2 BA.1 NTD (SARS-CoV-2 Omicron BA.1, strain)
T8 chain: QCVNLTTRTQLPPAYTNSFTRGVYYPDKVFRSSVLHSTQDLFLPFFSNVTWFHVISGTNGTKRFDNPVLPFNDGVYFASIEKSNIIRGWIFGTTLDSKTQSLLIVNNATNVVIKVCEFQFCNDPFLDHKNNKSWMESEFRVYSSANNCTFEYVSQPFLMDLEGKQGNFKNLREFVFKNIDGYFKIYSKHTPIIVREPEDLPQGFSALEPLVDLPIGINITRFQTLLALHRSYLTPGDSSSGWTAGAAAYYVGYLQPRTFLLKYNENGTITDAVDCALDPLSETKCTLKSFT

[2] = target: T9, SARS-CoV-2 B.1.617.2 (Delta) NTD (SARS-CoV-2 B.1.617.2 (Delta), strain)
T9 chain: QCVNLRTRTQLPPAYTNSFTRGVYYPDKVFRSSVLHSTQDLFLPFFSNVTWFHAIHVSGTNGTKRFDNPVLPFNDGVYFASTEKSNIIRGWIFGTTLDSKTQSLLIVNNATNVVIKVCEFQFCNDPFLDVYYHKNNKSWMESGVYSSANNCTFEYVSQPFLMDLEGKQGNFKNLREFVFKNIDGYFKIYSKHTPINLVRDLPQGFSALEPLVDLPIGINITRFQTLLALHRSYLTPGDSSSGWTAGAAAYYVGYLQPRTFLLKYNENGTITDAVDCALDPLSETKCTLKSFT

SARS-CoV-2 HV.1 RBD = SARS-CoV-2 HV.1 RBD (SARS-CoV-2 Omicron HV.1, strain)
SARS-CoV-2 BA.4/BA.5 RBD = SARS-CoV-2 BA.4/BA.5 RBD (SARS-CoV-2 Omicron BA.4/BA.5, strain)
SARS-CoV-2 EG.5.1 RBD = SARS-CoV-2 EG.5.1 RBD (SARS-CoV-2 Omicron EG.5.1, strain)
SARS-CoV-2 XBB.1.5 RBD = SARS-CoV-2 XBB.1.5 RBD (SARS-CoV-2 Omicron XBB.1.5, strain)

B1: C1596 IgG (antibody, V domains shown)
VH: QVQLVQSGAEVKKPGSSVKVSCKASGGTFINYAVTWVRQAPGQGLEWMGGIIPILGIPNYAQKFQGRVTITADKSTSTAYMELSSLRSEDTAVYYCARVPQAGAAQGHYYYYYGMDVWGQGTTVTVSS
VL: not shown
notes: copies: 2 + 2
- Kd (SARS-CoV-2 EG.5.1 NTD): 410 nM
- Kd [1]: 282 nM
- Kd (SARS-CoV-2 XBB.1.5 NTD): 529 nM
- Kd (SARS-CoV-2 BA.2.75.2 NTD): 607 nM
- Kd (SARS-CoV-2 BA.4/BA.5 NTD): 674 nM
- Kd (SARS-CoV-2 XBB.1.16 NTD): 591 nM
- Kd (SARS-CoV-2 BA.2 NTD): 685 nM
- Kd (SARS-CoV-2 BA.1 NTD): 88.2 nM
- Kd [2]: 124 nM

B2: C952 IgG (antibody, V domains shown)
VH: EVQLVQSGAEVKKPGESLTISCKDSGNSFTIYWIGWVRQMPGKGLEWMGMIYPGDSGTRYSPSFEGQVTISADESINTAYLQWRSLKASDTAMYYCVRGIAVDWYFDLWGRGTLVTVSS
VL: QSVLTQPPSVSGAPGQRVTISCTGSSSNIGAGFDVHWYQQLPGTAPKLLIYGNNNRPSGVPDRFSGSKSATSASLAITGLQAEDEADYYCQSSDSSLSGLYVFGTGTNVIVL
notes: copies: 2 + 2
- Kd (SARS-CoV-2 HV.1 RBD): 939000 nM
- koff (SARS-CoV-2 HV.1 RBD): 0.037 s⁻¹
- kon (SARS-CoV-2 HV.1 RBD): 39.4 M⁻¹ s⁻¹
- Kd (SARS-CoV-2 BA.4/BA.5 RBD): 8.22 nM
- koff (SARS-CoV-2 BA.4/BA.5 RBD): 0.00358 s⁻¹
- kon (SARS-CoV-2 BA.4/BA.5 RBD): 435000 M⁻¹ s⁻¹
- Kd (SARS-CoV-2 EG.5.1 RBD): 180000 nM
- koff (SARS-CoV-2 EG.5.1 RBD): 0.289 s⁻¹
- kon (SARS-CoV-2 EG.5.1 RBD): 1600 M⁻¹ s⁻¹
- Kd (SARS-CoV-2 XBB.1.5 RBD): 99.3 nM
- koff (SARS-CoV-2 XBB.1.5 RBD): 0.0046 s⁻¹
- kon (SARS-CoV-2 XBB.1.5 RBD): 46300 M⁻¹ s⁻¹

B3: C1520 IgG (antibody, V domains shown)
VH: EVQLVESGGGLVQPGGSLRLACVASGFTFSIYEMNWVRQAPGKGLEWVSYITTSGHARYNADSVKGRFTISRDNSKNSFYLQMNSLRAEDTAIYYCARPQYHYYDTSTYHSYGFDIWGQGTMVTVSS
VL: QLVLTQSPSASASLGASVNLTCTLSSGHNSYAIAWHQQQPEKGPRYLMSLNSDGSHTKGDGIPDRFSGSSSGAERFLTISSLQSEDEADYYCQTWDTGIRVFGGGTRLTVL
notes: copies: 2 + 2
- Kd [1]: 230 nM
- koff [1]: 0.00301 s⁻¹
- kon [1]: 13100 M⁻¹ s⁻¹
- Kd (SARS-CoV-2 BA.2.75.2 NTD): 185 nM
- koff (SARS-CoV-2 BA.2.75.2 NTD): 0.00569 s⁻¹
- kon (SARS-CoV-2 BA.2.75.2 NTD): 30700 M⁻¹ s⁻¹
- Kd (SARS-CoV-2 BA.4/BA.5 NTD): 11.4 nM
- koff (SARS-CoV-2 BA.4/BA.5 NTD): 0.000528 s⁻¹
- kon (SARS-CoV-2 BA.4/BA.5 NTD): 46300 M⁻¹ s⁻¹
- Kd (SARS-CoV-2 BA.2 NTD): 14.3 nM
- koff (SARS-CoV-2 BA.2 NTD): 0.000514 s⁻¹
- kon (SARS-CoV-2 BA.2 NTD): 36000 M⁻¹ s⁻¹
- Kd (SARS-CoV-2 BA.1 NTD): 118 nM
- koff (SARS-CoV-2 BA.1 NTD): 0.00418 s⁻¹
- kon (SARS-CoV-2 BA.1 NTD): 35500 M⁻¹ s⁻¹
- Kd [2]: 47 nM
- koff [2]: 0.00141 s⁻¹
- kon [2]: 30000 M⁻¹ s⁻¹

B4: C1533 IgG (antibody, V domains shown)
VH: QVQLVQSGAEVKKPGSSVKVSCKTSGVIFSRNAFSWVRQAPGQGLEWMGRIIPFLDVTNSAQEFQGRVTLNADKSTSTVYMELSSLRSEDTAIYYCARHNGDPYDFWSGYNTWAGGLDVWGQGTTVTVSS
VL: QSVLTQPPSASGTPGQRVTISCSGSGSNIGSNAVNWYQQLPGTAPKLLIYNQNQRPSGVPDRFSGSKSGTSASLAIGGLQSEDEADYYCATWDDNLSGLVFGGGTKLTVL
notes: copies: 2 + 2
- Kd [1]: 24.9 nM
- koff [1]: 0.00107 s⁻¹
- kon [1]: 43100 M⁻¹ s⁻¹
